This note sets out measurements from publication PMC10226596, “The ethylene-responsive transcription factor PpERF9 represses PpRAP2.4 and PpMYB114 via histone deacetylation to inhibit anthocyanin biosynthesis in pear”.

The target of data set [1] is T1, PpRAP2.4 (Pyrus (pear, 'Hongzaosu'?), UniProt A0A5N5HQM7 1-356). Nature of the data set: EMSA; 3 ug protein; cold competitor 10-, 50-, 200-fold; LightShift Chemiluminescent EMSA Kit (Thermo Scientific); buffer, salt, pH and temperature not stated. To be noted: protein: recombinant; tags: His (pET32a); label: 3' biotin (hot probe); blunt.
T1 sequence (A0A5N5HQM7 entry or part of it): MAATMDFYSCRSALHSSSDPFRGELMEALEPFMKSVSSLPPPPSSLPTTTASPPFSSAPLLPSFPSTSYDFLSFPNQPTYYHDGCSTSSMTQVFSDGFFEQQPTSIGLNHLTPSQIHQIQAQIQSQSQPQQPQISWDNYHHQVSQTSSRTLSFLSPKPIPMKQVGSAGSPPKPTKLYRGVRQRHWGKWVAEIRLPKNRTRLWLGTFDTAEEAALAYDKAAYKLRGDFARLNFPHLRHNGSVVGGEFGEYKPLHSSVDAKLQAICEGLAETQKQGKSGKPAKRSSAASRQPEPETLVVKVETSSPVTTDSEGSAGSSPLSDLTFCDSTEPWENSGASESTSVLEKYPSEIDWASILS
In data set [2] the target is T1, PpRAP2.4. Nature of the data set: EMSA; cold competitor 50-, 100-, 200-fold; LightShift Chemiluminescent EMSA Kit (Thermo Scientific); buffer, salt, pH and temperature not stated. To be noted: protein: recombinant; tags: His (pET32a); label: 3' biotin (hot probe); blunt. In general terms: Mobility shift assays separate free from complexed probe on a gel.

B1: ProMYB114-probe (dsDNA)
DNA 1: GCTTGCCGTCTTTGTCGTCTCCGGCGCCGCCATCTACATCTGCTTCCAGGTTCAAC
DNA 2: GTTGAACCTGGAAGCAGATGTAGATGGCGGCGCCGGAGACGACAAAGACGGCAAGC
Regarding B1, in the data set with PpRAP2.4 [1], the binding result is on record as “binds”.

B2: ProACS1-probe (dsDNA)
DNA 1: GAAAAATAGAGGAGAAAAATGGCCGACAAAATTAGTTGTGGCTACTAGAGTCAAGAAG
DNA 2: CTTCTTGACTCTAGTAGCCACAACTAATTTTGTCGGCCATTTTTCTCCTCTATTTTTC
Regarding B2, the binding result with PpRAP2.4 [2] was “binds”.
